Results published in the DeepSol protein solubility set.

Assay: soluble on expression in E. coli; label from the status in PepcDB or PDB records

Soluble on expression in E. coli, not soluble:
MGSDKIHHHHHHMAVTVENLTKRYGEKVALDNVSFDVKKGDILGIIGKSGAGKTTLIKILRGVESFDEGKIEVCGKTENLREITAIHLQRNFALWAEPAIYNIIRKLYAVRTDSDEGLPLEEEMEEYRKDATEILKLVGLEHKKDAYSNILSGGEKQRLILGRQLAKIYAKNGDGVLLLDEPATMACPASKQILLDVLKNINEKLGVTIIVTSHLPEIHKYLCKSCILIENGKIIMKDTPEKVVDEFLKDMVEAYDRLSKPTDKTVVEVEDASKRYYVVNGGETLNLKDISFKVKEKEILSILGPSGTGKSVILRLLAGLEAPDKGVVKLEGIDLKDFGWNRMNLRRKIGIMHQEFSLAHYLTVNELLKYRLGVKSIETVESAKLKAAELGISPKMVDGLYQLLDLPETEMRNKLDKIGISEMVVRKLFPAKPVEYDANELLEALDLNKETLNKKPTELSGGEKVRVAMALQLALEPDILLLDEPFGDLDPLTLREVSNYLKKINDTVGTTIILISHHVELIKEISDRAILIDEGKLLMNGNPEEICEKFIERSNSKFMNQ
MGSDKIHHHHHHMAYLTIIKNGETIDHRKYGLKLLSFRKESLTHRTNFEEIGGRHGAIDTGTTFGERKLKATFLMQGVDHLDYQLMIDEVYALFACEDSIELIDSRQPGKVWTVKPSSTFEPDDLNPRSGKFEIEFTSPLPFASSYGSTLDPFTFGEEVWQIGQGLIPSDSLVYRHRTTRFSIFNAGNVEVDPCLEMPLNIVYKGASSNFSIKNKTTGQTISYNGTSKSTDSIKLEGLRHLKNGISIYGNTNRGYVSLKPGWNDFELTGTSGSFEITFDFFFFYK
MGSDKIHHHHHHMCNISHSQVQYLATKGDGDLPAGTAAGTGRTRTFTLEEARIWVQKVSDIYQTPLVTRLKEPDGKIIITAQLKGGSAKTTTTMCLAQGLSLRGRKVLVLDLDPQASLSELCGLYAEKDVTPEDTVLPYIYDQEIEGGLEARVQSTYWDGIDVIPAHTELIGAEFHLPAMQKMRPGFRFWTVLRQGLEPLRKKYDYILMDTSPSLSYLNLNALMAADAMVMPMVPENLDFISSLSFWRLFSDVSKSFIKYEKDKKYDFVSLILSRVDYGRNSSAPIVRAWAQSAYENWLHSIEVPASSVMSTGALAFSTVFDISSTHSASKSLQRVRQPLIDYCRWVDEIYSEKWRSAQ
MGSDKIHHHHHHMDAAAAPERIDLAGLVADLNALLRLKTTVIGMKLFRTVAEMEAVPKIRRPNAIHTTDQIVSMASRLGWTVGITAADLVGEQCRAVIGLAPQDAAWLAGRSYVGVWHATPEDASARQQALDVVPFGHHQAMAVSPLASGRLDPPDICLVYATPGQMIILINGLQYAGYKKFEWSVVGETACADSWGRALKTGEPSLSLPCFAERRYGGVPDEEMLMALSPAHLAKAIDGMKQLAKNGLRYPIAPYGIQADVRAGMGVSYGNK
MGSDKIHHHHHHMDAANVDLKAFTEDFYHRLCGAHLESVKETLVYLKHETDVWVEVTTLLIPGENDSPEEIDAQTKWMMAALGPDVPLHFSAFHPDWKMKDKTNTPPETLTRARDIAIRNGLRYVYTGNVHDPAGGGTYCSGCGALLIGRDWYELSTWALTPEGHCRECGTPLPGRFEAAPGTWGRKRQPVRFQR
MGSDKIHHHHHHMDDIKSQIKELRLGAKIRKLRQDRRLTLQELSELSGLSKPLLSQIENDQVTPPIATLLKISKGLKVGIHYFFEEEEDQQKVVLTRAAQQQPTRRRSGNDAPHGYIYRSLAPGIRHKPMEPFLVEFELTDWSDSFFYRHDGFEFIYLLDGELEFHYGSDVMRLLPGDSIYYDSSEPHGYVSVGEERARAVAVLYTRD
MGSDKIHHHHHHMDERWMVMKITIVFENHAGYRKGLIGYHGFSALVEANGYRVLVDTGTDGKVLLNNMSELGISPDDIDALFITHGHYDHTGGLRELLSARTEALDIYAHPGIFKRRLALKPKKREIGIPFTREELEELGGKFILSDKSKEILPGFISSGEIERITWDRAVGYFPDGSKDPVRDDMALIVEEGSKSVVITGCGHSGIINIAIHSKKLTNNRIAALIGGFHLKGIERSLLDEAVKKLRELEIEKLYPGHCTGIEEFAYLWSKFGNVEGIHVGKEIKI
MGSDKIHHHHHHMDFAAIDKQISALEACIDSTVEVTPGEQLSVGVDLGTAYIVVVVLNAAGSPVACAMEFAQVIKDGLVVDYVGATRIVRRLVQQLEERLGRQLTHAAIAVPPGTGHKDSNTHRHVVEGAGLEVTAILDEPTAANAVLGVQNGVIVDIGGGTTGLSVIEDGKVTYVADEPTGGTHVSLVLAGSYRISFTEAEELKKDQDRQREILPVVRPVIQKMASIVNRHIEGRDISAIYLVGGTCCLKDFETVFEKETGRPVYKPANPFLVTPLGIALNCNA
MGSDKIHHHHHHMDFDTGRRIDRRAIPADAVEGTWTASDGHPIRRIDWPGHSEPDAPTAPRGSLLFLPGRGDFYEKYLESLDYWHCEGWRVTALDWRGQAGSGRLSSDPMTGHVPDFGLWLDDLGAFWTDWVRDTPGPHVVVGHSMGGHLVLRALAERRIDPAAVVLSAPMLGFLTPGPNRVLHRVAEFMCRIGDPERSAWKSSEKPGATTAARNTLLTHDEARYGDETHWKTVRPELAMGPGSWRWVERAYASMLVLDRPGLLEAVDVPVLLLAARHDGLVSWRAIERAARRLPRAQLMTWGREARHELLREADPVRDKVMHAIDDFLDRLAPPTGEDAPA
MGSDKIHHHHHHMDHIQAMRVFVRIVELGSFSRAAERLALPRATVSNTIKQLEGRLGVRLLQRTTRQVQITDEGRVYYERCLQLLAEIEEIDTLFTQQKLQPVGKVRVDMPHSLAREIVVPALGEFYARYPQVTLMLSANDAAINVLREGVDCVLRAWQTDDETLATRHLPSMPQVTCASADYLARYGVPRSLDELSGHHMVGYFSLRTEYLYPLEFMSGDERITRMLPGTLQVNGADAYIAGACAGLGIIQAPRRGLISLLDGGELVEILPEIPPPAMPLYVMYTPGRFLAPRIRVFIEWLDELFTRNAAVR
MGSDKIHHHHHHMDIEDLRTFVAVADAGGVSAAARRLGISKSIVSRRLFRIEAELGVQLLARTTRGAALTEAGITFRDHAARASAEIDTARETILPAGELHGRLRIAMPLTFGPTHFAPVLAEMARQHPQLHIHTSYSDRFVDLIAEGFDCAIRGAYLQDSNLIAKRVGPIHGKLVASPAYIKAHGSPEMVEQLVNHQALMQGTEAWQFMDGDRIVTVQPQGKFKADSATALAAAAAAGLGIAWLPDCITHAYLASGALVPIMTRYPVPPGAVYVVRPPSQHPARKVRVLTEMLTEYFKRTPELWGVDG
MGSDKIHHHHHHMDINLRFFSRLNPWLNSLFTSKATLKTEIDEAQQGQMSLKTIANQYPLQARRGPITQVMLYQSLYASDDFVGREKQLNQITDVINQWRNHHGEISAIVSPAGSGGSSFLGQLPPLLQTIIADDAKKAPMPDVKPLPSKWLLMSFYQAPLGANGAIAHVCYCFGITPPNTITETIAAINQQPPQLIMIDDMHKLMLRMMGNNQALVTFATIVMETRKHHCWIMGCEIFAWQRLSAQYQIHHFIKHVFQLDYFSETELATIQTKHLLDLGLISNDVMAKETTTTPPNNTNKSTKEQTEQANIEQVDIVNPYKDQLKQLYTISQGHPKLASLLLQYSLAHQVDIGSDNSSNSRSNNGIDICRINSSVLQQCQDNDLFSVAEIYVHGGLRVSQHAHIFAITIEQSSLQLEYLARQGLIIAQYSQQDFAEHFYFITPTLSKIIANHLVNNNKLFN
MGSDKIHHHHHHMDIPWLVERDDRNERIVLSIKTNAKEALENAYRKKSRVTGKMIAYVHDSCANFFCEEGWLQEGAVSTYFHNGQANVFSFFLKEDRQNSDHERLHREVLSYVQKIERTLELSSHAVQRLNEADTDSLAQLYRHVFERYPTDVFSAQYLQQTMKEGAKFVGVKEGTDIICAASAVPNGFGGWEITDCATKKEARGNGYLSSVLCELEQWLWEEGEENVYSITRSHSFGMNVTIKKRGFSYEGTMVNNCIIGTGFEDMNIWTKRLTATNIC
MGSDKIHHHHHHMDKLDNYIVTILEKSITPRKSPFLHTILAGRRTGQAVQDAHLFQMQHLFGLVPNLKLNYLETRLKELMRQGIITVTENGYTVKQKPNFSFEMSFPSFHGFAFQQQVFAFFAHLRLAVQVVSNKHHAEKYYLPVIRDKKVQQFIKIWLQNQQQEDLADRLYIELIKWFNSLAVSRPEFLVERFSGGKLMGYTTEQIATKYQVEKWDVYFEVLHELHRLIAAIKESEEEWPLLASLIPNELMSLTSSAIKTYTLWAKGMDLEMIERIRNLKTSTIQDHFVEIRATLKEAQVPYLPEEELIQSINSRNWHLLRDIKAAFPDLDYYQIRLAVVSKEDEQ
MGSDKIHHHHHHMDLFSAMRIFIRVVERGSMSAAARDLGIGQPAVSERIEKLEAHLGTRLLRRNTRNMSLTQSGNVFYERSKTAVQAAEHALSVNEENQGLQGKIRIAAPYSAGESLLMPALLQLQNEHPELQVDVIFNDRVINPVTEGVDLSLRLGDVSEGFFVARPLGTVRRVLLASPALLAKMGHPDTPDALTDYPFAAVSGVFASNRIQLVASEDQLINVPVNIQFQSTHWRSVLSWLLAGHAIGVLQSPVCRKEIADGALIPLLSHYPIPPFSAWLLHPPAGMMSYETRICASLLEGYIRDLLLEPAG
MGSDKIHHHHHHMDQFDRTPLMTADSEALATARRVLATEARALDSLATSLGDAFLKAVTLIEGAPGRVVVTGMGKSGHVARKIAATMASTGCPAFYVHPAEASHGDLGMVTRDDAVVALSNSGETPELSDVIAYTRRFEIPLIGITSRDGSTLAAASDVALVLPPNPEACPMGLAPTTSTTLMLALGDALAVTLLERKGFTAADFQVFHPGGKLGQRLLKVTDLMHGGDGLPLVGTEASMADVLLVMTAKSLGCAGVIDSGGKLAGVLTDGDLRRHMSPDLLTAKAAEVMTASPRTVPPNLLAAEALRQMNERSITSLFVVESDGRPVGVLHVHDCLRAGLA
MGSDKIHHHHHHMDSVKLIDLSEMRDILRSVNPFPGRWSFITSVEYMLDSRLYVDSIGDDAKVVRATLGPHDRNILDFGTGSGVFAIALRQVLPELDISAVDTTDNKSQSHPDFSDGQAAAHQRLIYPPLAERFRISFNHYNGHLLPYPDGSFDAISAYAVIEHIPHEELDAAMREIARVLKDDGKLFVFKMPRKLALVEHVAGILGLGRHDTLYGDGEALRLFRSYGWKVEKTFKSNMVFDYPGWLTNRLYHPLKLIDRILYWSPWRLFAHHNNFVLRKLERPQL
MGSDKIHHHHHHMDSWNMKGSKMVDVNEITKYLPGFNCGACGYKRCDLFAEALLNKDVKLEDCPFLLRERFKENYEKLKEILKIKGKIKKEEKYIGVIDGYEADFLLKPLPNECSCRETLLIMDKKELKVGDYIRYRPLGCPIPHFAKIIDEYHGFYIIHVVGPSHRITGEKIEYKDVGIAIVVAFEGIVEGKVPEVGKTVKFIPKHCMMQKVHSGVVVQVEGKRVYIEGIDLKVF
MGSDKIHHHHHHMDTAPLLPSSIRDQFTREVVYLNTATCGLPPRVAHEATLAVERDRARGRLTLDIAHQAVERSRAAFARLVGVPVSRVAVGSQASFFVGLVAASLPPGATVVVAEEDFTSVTYPFLAATGRGVTVRPVPLDRIIDAVDTSVDLVSVSVVQSADGRIVDVPALLDAAATHGARVLLDTTQSSGWLPIPADRVDYLVCSAYKWLLGPRGACFFAGTDDALAELTPIAANWFAAEDITSAFYGTELRLASDARRFDLSPAWASCVGLAPALELLADLGEAALGAHNVALANRFCAALGLPPTDSAIVSVAVDAKAQQVLADAGIVAAMRAGRMRCAFHLSTDAADVDRAVEEIGPYLRDANLEEAVRVPGDR
